Data on one molecule can be found in patent publication US20040109861A1 (MYRIAD GENETICS, published 2004).

This assay concerns the target T1, myc-tagged Tsg101 (residues 1-207) (human, UniProt Q99816 1-207).
T1 construct: range 1-207; Used as Drosophila S2 cell lysate, not purified; The tag is placed N-terminal from the name myc-Tsg101; also called myc-Tsg101(1-207); myc-Tsg101 (1-207)
T1 sequence: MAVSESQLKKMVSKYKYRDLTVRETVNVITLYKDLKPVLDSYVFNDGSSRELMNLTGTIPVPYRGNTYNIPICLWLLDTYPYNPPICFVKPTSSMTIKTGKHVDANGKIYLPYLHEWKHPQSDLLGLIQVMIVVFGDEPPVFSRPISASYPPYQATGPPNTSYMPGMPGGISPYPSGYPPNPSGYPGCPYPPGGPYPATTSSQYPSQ
The assay can be described thus: plate competition assay, competitor of coated GST-p6 for myc-Tsg101(1-207).

B1: p6(1-14) peptide (GAGp6 peptide containing the first 14 amino acid residues) (peptide)
peptide: LQSRPEPTAPPEES
notes: also called first 14 amino acid residues of HIV GAGp6
For the molecule B1, the binding result is recorded as “binds”.
